From paper PMC9482650, “Quantitative fragmentomics allow affinity mapping of interactomes” (Nature Communications, 2022)

Each binder was assayed against T1, PDZD11, Q5EBL8 (assay: holdup assay). Details: plain residues with an end cap or a label only (N-terminal biotin on a linker: ttds).
T1 sequence (Q5EBL8 42-139, limits assumed, looked up): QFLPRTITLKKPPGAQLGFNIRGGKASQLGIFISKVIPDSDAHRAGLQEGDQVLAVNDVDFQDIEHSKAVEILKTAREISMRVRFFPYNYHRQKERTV
Parameters: key: below the threshold = too weak to quantify, mostly under pKd 3.1 to 4

Row | Binder | pKd
1 | SGGKRKETLV [NET1, Q7Z628] | below the threshold
2 | KLVIKTETTV [RASSF6, Q6ZTQ3] | below the threshold

Each binder was assayed against T2, LNX2_4, Q8N448 (assay: holdup assay). Details: plain residues with an end cap or a label only (N-terminal biotin on a linker: ttds).
T2 sequence (Q8N448 595-690, limits assumed, looked up): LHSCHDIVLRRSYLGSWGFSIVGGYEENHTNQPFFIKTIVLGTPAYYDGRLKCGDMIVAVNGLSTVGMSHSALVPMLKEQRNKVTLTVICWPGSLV
Parameters: key: below the threshold = too weak to quantify, mostly under pKd 3.1 to 4

Row | Binder | pKd
3 | KLVIKTETTV [RASSF6, Q6ZTQ3] | below the threshold

What follows are binders tested against PARD3_1, Q8TEW0 (assay: holdup assay). Details: plain residues with an end cap or a label only (N-terminal biotin on a linker: ttds).
Parameters: key: below the threshold = too weak to quantify, mostly under pKd 3.1 to 4

Sequence of PARD3_1, Q8TEW0 (Q8TEW0 264-372): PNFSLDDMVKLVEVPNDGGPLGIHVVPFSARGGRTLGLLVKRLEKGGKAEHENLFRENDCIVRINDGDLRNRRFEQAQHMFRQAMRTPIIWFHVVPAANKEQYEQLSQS

Row | Binder | pKd
4 | SGGKRKETLV [NET1, Q7Z628] | below the threshold
5 | KLVIKTETTV [RASSF6, Q6ZTQ3] | below the threshold

What follows are binders tested against RIMS2, Q9UQ26 (assay: holdup assay). Details: plain residues with an end cap or a label only (N-terminal biotin on a linker: ttds).
Parameters: key: below the threshold = too weak to quantify, mostly under pKd 3.1 to 4

Sequence of RIMS2, Q9UQ26 (Q9UQ26 637-758): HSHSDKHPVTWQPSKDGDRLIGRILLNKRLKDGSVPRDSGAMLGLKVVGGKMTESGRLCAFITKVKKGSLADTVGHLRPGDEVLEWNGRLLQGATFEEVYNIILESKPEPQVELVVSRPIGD

Row | Binder | pKd
6 | SGGKRKETLV [NET1, Q7Z628] | below the threshold
7 | KLVIKTETTV [RASSF6, Q6ZTQ3] | below the threshold

Each binder was assayed against T3, APBA3_2, O96018 (assay: holdup assay). Details: plain residues with an end cap or a label only (N-terminal biotin on a linker: ttds).
T3 sequence (O96018 480-570, limits assumed, looked up): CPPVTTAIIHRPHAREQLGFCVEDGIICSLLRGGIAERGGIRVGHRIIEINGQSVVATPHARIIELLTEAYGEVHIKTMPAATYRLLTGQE
Parameters: key: below the threshold = too weak to quantify, mostly under pKd 3.1 to 4

Row | Binder | pKd
8 | SGGKRKETLV [NET1, Q7Z628] | below the threshold

The binders below were run against NHERF4_3, Q86UT5 (assay: holdup assay). Details: plain residues with an end cap or a label only (N-terminal biotin on a linker: ttds).
Parameters: key: below the threshold = too weak to quantify, mostly under pKd 3.1 to 4

Sequence of NHERF4_3, Q86UT5 (Q86UT5 325-412): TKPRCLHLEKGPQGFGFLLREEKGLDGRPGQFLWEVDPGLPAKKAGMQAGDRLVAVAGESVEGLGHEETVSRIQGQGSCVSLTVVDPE

Row | Binder | pKd
9 | SGGKRKETLV [NET1, Q7Z628] | below the threshold
10 | KLVIKTETTV [RASSF6, Q6ZTQ3] | below the threshold

These binders were tested against T4, PDZD7_1, Q9H5P4 (assay: holdup assay). Details: plain residues with an end cap or a label only (N-terminal biotin on a linker: ttds).
T4 sequence (Q9H5P4 81-178, limits assumed, looked up): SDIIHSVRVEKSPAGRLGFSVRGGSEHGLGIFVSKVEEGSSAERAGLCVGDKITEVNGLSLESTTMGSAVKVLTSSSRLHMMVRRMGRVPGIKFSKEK
Parameters: key: below the threshold = too weak to quantify, mostly under pKd 3.1 to 4

Row | Binder | pKd
11 | SGGKRKETLV [NET1, Q7Z628] | below the threshold
12 | KLVIKTETTV [RASSF6, Q6ZTQ3] | below the threshold

The binders below were run against DVL2, O14641 (assay: holdup assay). Details: plain residues with an end cap or a label only (N-terminal biotin on a linker: ttds).
Parameters: key: below the threshold = too weak to quantify, mostly under pKd 3.1 to 4

Sequence of DVL2, O14641 (O14641 260-359): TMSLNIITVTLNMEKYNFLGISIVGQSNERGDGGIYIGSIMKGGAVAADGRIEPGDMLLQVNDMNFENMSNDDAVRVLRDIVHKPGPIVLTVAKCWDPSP

Row | Binder | pKd
13 | SGGKRKETLV [NET1, Q7Z628] | below the threshold
14 | KLVIKTETTV [RASSF6, Q6ZTQ3] | below the threshold

What follows are binders tested against LMO7, Q8WWI1 (assay: holdup assay). Details: plain residues with an end cap or a label only (N-terminal biotin on a linker: ttds).
Parameters: key: below the threshold = too weak to quantify, mostly under pKd 3.1 to 4

Sequence of LMO7, Q8WWI1 (Q8WWI1 1037-1138): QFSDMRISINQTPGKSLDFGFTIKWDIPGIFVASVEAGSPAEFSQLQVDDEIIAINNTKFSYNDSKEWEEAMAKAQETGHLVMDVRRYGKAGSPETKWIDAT

Row | Binder | pKd
15 | KLVIKTETTV [RASSF6, Q6ZTQ3] | below the threshold

The binders below were run against PARD3B_3, Q8TEW8 (assay: holdup assay). Details: plain residues with an end cap or a label only (N-terminal biotin on a linker: ttds).
Parameters: key: below the threshold = too weak to quantify, mostly under pKd 3.1 to 4

Sequence of PARD3B_3, Q8TEW8 (Q8TEW8 490-594): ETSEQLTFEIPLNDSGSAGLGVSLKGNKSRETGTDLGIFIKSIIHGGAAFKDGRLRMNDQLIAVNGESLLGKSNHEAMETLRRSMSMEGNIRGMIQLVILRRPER

Row | Binder | pKd
16 | SGGKRKETLV [NET1, Q7Z628] | below the threshold
17 | KLVIKTETTV [RASSF6, Q6ZTQ3] | below the threshold

These binders were tested against T5, PDLIM3, Q53GG5 (assay: holdup assay). Details: plain residues with an end cap or a label only (N-terminal biotin on a linker: ttds).
T5 sequence (Q53GG5 1-94, limits assumed, looked up): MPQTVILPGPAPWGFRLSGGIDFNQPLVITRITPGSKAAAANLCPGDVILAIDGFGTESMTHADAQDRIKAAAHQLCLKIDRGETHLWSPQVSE
Parameters: key: below the threshold = too weak to quantify, mostly under pKd 3.1 to 4

Row | Binder | pKd
18 | SGGKRKETLV [NET1, Q7Z628] | below the threshold
19 | KLVIKTETTV [RASSF6, Q6ZTQ3] | below the threshold

What follows are binders tested against T6, NHERF1_1, O14745 (assay: holdup assay). Details: plain residues with an end cap or a label only (N-terminal biotin on a linker: ttds).
T6 sequence (O14745 9-104, limits assumed, looked up): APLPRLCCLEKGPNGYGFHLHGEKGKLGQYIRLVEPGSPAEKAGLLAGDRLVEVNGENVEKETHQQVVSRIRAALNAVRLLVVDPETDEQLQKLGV
Parameters: key: below the threshold = too weak to quantify, mostly under pKd 3.1 to 4

Row | Binder | pKd
20 | SGGKRKETLV [NET1, Q7Z628] | below the threshold
21 | KLVIKTETTV [RASSF6, Q6ZTQ3] | below the threshold

These binders were tested against T7, MPDZ_3, O75970 (assay: holdup assay). Details: plain residues with an end cap or a label only (N-terminal biotin on a linker: ttds).
T7 sequence (O75970 372-473, limits assumed, looked up): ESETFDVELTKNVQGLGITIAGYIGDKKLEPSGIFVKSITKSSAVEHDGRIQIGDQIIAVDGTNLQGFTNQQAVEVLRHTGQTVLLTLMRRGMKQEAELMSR
Parameters: key: below the threshold = too weak to quantify, mostly under pKd 3.1 to 4

Row | Binder | pKd
22 | SGGKRKETLV [NET1, Q7Z628] | below the threshold
23 | KLVIKTETTV [RASSF6, Q6ZTQ3] | below the threshold

The binders below were run against T8, SIPA1L3, O60292 (assay: holdup assay). Details: plain residues with an end cap or a label only (N-terminal biotin on a linker: ttds).
T8 sequence (O60292 961-1052, limits assumed, looked up): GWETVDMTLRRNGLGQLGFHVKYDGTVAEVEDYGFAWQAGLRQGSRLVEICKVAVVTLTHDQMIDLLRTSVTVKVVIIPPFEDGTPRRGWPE
Parameters: key: below the threshold = too weak to quantify, mostly under pKd 3.1 to 4

Row | Binder | pKd
24 | SGGKRKETLV [NET1, Q7Z628] | below the threshold
25 | KLVIKTETTV [RASSF6, Q6ZTQ3] | below the threshold

What follows are binders tested against MAGI3_6, Q5TCQ9 (assay: holdup assay). Details: plain residues with an end cap or a label only (N-terminal biotin on a linker: ttds).
Parameters: key: below the threshold = too weak to quantify, mostly under pKd 3.1 to 4

Sequence of MAGI3_6, Q5TCQ9 (Q5TCQ9 1014-1103): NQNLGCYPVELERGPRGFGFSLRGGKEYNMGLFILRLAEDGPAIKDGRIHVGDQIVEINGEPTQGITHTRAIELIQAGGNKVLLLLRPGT

Row | Binder | pKd
26 | SGGKRKETLV [NET1, Q7Z628] | below the threshold
27 | KLVIKTETTV [RASSF6, Q6ZTQ3] | 4.15

These binders were tested against SDCBP_1, O00560 (assay: holdup assay). Details: plain residues with an end cap or a label only (N-terminal biotin on a linker: ttds).
Parameters: key: below the threshold = too weak to quantify, mostly under pKd 3.1 to 4

Sequence of SDCBP_1, O00560 (O00560 111-198): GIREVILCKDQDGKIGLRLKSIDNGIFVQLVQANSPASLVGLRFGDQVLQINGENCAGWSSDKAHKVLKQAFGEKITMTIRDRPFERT

Row | Binder | pKd
28 | SGGKRKETLV [NET1, Q7Z628] | below the threshold
29 | KLVIKTETTV [RASSF6, Q6ZTQ3] | below the threshold

These binders were tested against T9, PARD6G, Q9BYG4 (assay: holdup assay). Details: plain residues with an end cap or a label only (N-terminal biotin on a linker: ttds).
T9 sequence (Q9BYG4 153-261, limits assumed, looked up): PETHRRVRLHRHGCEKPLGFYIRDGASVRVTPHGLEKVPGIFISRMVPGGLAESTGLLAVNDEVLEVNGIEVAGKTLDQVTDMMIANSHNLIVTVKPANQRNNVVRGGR
Parameters: key: below the threshold = too weak to quantify, mostly under pKd 3.1 to 4

Row | Binder | pKd
30 | SGGKRKETLV [NET1, Q7Z628] | below the threshold
31 | KLVIKTETTV [RASSF6, Q6ZTQ3] | below the threshold

Each binder was assayed against T10, PDZD7_2, Q9H5P4 (assay: holdup assay). Details: plain residues with an end cap or a label only (N-terminal biotin on a linker: ttds).
T10 sequence (Q9H5P4 205-303, limits assumed, looked up): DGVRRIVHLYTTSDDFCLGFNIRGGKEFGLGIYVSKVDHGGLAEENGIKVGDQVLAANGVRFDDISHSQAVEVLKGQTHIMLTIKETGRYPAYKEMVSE
Parameters: key: below the threshold = too weak to quantify, mostly under pKd 3.1 to 4

Row | Binder | pKd
32 | SGGKRKETLV [NET1, Q7Z628] | below the threshold
33 | KLVIKTETTV [RASSF6, Q6ZTQ3] | below the threshold

What follows are binders tested against TJP1_1, Q07157 (assay: holdup assay). Details: plain residues with an end cap or a label only (N-terminal biotin on a linker: ttds).
Parameters: key: below the threshold = too weak to quantify, mostly under pKd 3.1 to 4

Sequence of TJP1_1, Q07157 (Q07157 18-120): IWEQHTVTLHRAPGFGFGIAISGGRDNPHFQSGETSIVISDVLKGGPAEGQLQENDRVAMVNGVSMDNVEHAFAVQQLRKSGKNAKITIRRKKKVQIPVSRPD

Row | Binder | pKd
34 | SGGKRKETLV [NET1, Q7Z628] | 3.89
35 | KLVIKTETTV [RASSF6, Q6ZTQ3] | below the threshold

The binders below were run against T11, SNTB2, Q13425 (assay: holdup assay). Details: plain residues with an end cap or a label only (N-terminal biotin on a linker: ttds).
T11 sequence (Q13425 110-208, limits assumed, looked up): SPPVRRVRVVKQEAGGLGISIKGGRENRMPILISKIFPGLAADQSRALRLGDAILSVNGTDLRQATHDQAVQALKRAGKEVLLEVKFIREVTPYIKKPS
Parameters: key: below the threshold = too weak to quantify, mostly under pKd 3.1 to 4

Row | Binder | pKd
36 | KLVIKTETTV [RASSF6, Q6ZTQ3] | 4.2

Each binder was assayed against T12, MLLT4, P55196 (assay: holdup assay). Details: plain residues with an end cap or a label only (N-terminal biotin on a linker: ttds).
T12 sequence (P55196 1002-1103, limits assumed, looked up): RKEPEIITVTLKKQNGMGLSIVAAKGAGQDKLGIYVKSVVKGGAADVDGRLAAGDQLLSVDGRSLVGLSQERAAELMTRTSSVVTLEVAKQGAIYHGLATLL
Parameters: key: below the threshold = too weak to quantify, mostly under pKd 3.1 to 4

Row | Binder | pKd
37 | SGGKRKETLV [NET1, Q7Z628] | 4.02
38 | KLVIKTETTV [RASSF6, Q6ZTQ3] | below the threshold

These binders were tested against CNKSR3, Q6P9H4 (assay: holdup assay). Details: plain residues with an end cap or a label only (N-terminal biotin on a linker: ttds).
Parameters: key: below the threshold = too weak to quantify, mostly under pKd 3.1 to 4

Sequence of CNKSR3, Q6P9H4 (Q6P9H4 203-303): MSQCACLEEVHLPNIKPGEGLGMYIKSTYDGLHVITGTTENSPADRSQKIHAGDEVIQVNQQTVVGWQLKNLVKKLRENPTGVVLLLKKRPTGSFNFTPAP

Row | Binder | pKd
39 | SGGKRKETLV [NET1, Q7Z628] | below the threshold
40 | KLVIKTETTV [RASSF6, Q6ZTQ3] | below the threshold

What follows are binders tested against T13, PDZRN3_2, Q9UPQ7 (assay: holdup assay). Details: plain residues with an end cap or a label only (N-terminal biotin on a linker: ttds).
T13 sequence (Q9UPQ7 414-513, limits assumed, looked up): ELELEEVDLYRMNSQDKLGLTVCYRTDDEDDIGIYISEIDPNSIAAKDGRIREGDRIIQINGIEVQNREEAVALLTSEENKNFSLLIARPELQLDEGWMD
Parameters: key: below the threshold = too weak to quantify, mostly under pKd 3.1 to 4

Row | Binder | pKd
41 | SGGKRKETLV [NET1, Q7Z628] | below the threshold
42 | KLVIKTETTV [RASSF6, Q6ZTQ3] | below the threshold

These binders were tested against NHERF2_1, Q15599 (assay: holdup assay). Details: plain residues with an end cap or a label only (N-terminal biotin on a linker: ttds).
Parameters: key: below the threshold = too weak to quantify, mostly under pKd 3.1 to 4

Sequence of NHERF2_1, Q15599 (Q15599 9-91): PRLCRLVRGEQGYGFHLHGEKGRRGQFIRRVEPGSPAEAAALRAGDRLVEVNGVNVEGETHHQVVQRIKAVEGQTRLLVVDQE

Row | Binder | pKd
43 | SGGKRKETLV [NET1, Q7Z628] | below the threshold
44 | KLVIKTETTV [RASSF6, Q6ZTQ3] | below the threshold

Each binder was assayed against SCRIB_4, Q14160 (assay: holdup assay). Details: plain residues with an end cap or a label only (N-terminal biotin on a linker: ttds).
Parameters: key: below the threshold = too weak to quantify, mostly under pKd 3.1 to 4

Sequence of SCRIB_4, Q14160 (Q14160 1095-1204): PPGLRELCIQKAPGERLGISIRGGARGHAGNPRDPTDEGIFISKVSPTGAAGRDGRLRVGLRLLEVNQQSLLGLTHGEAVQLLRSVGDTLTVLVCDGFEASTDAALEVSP

Row | Binder | pKd
45 | SGGKRKETLV [NET1, Q7Z628] | below the threshold
46 | KLVIKTETTV [RASSF6, Q6ZTQ3] | below the threshold
